Reference: patent US20240294593A1

Legend:
[1] = biological target: human PD-1-His (human) (UniProt Q15116); test: Octet tandem epitope binning: PD-1-His on HIS1K biosensor, first dip chmAb B (row), second dip 1C11-based mAb; normalized to HBS-EP first dip
[2] = biological target: human PD-1-His (human) (UniProt Q15116); test: Octet tandem epitope binning: PD-1-His on HIS1K biosensor, first dip XENP16432 (row), second dip 1C11-based mAb; normalized to HBS-EP first dip
[3] = biological target: human PD-1-His (human) (UniProt Q15116); test: Octet tandem epitope binning: PD-1-His on HIS1K biosensor, first dip XENP21461 (row), second dip 1C11-based mAb; normalized to HBS-EP first dip
[4] = biological target: human PD-1-His (human) (UniProt Q15116); test: Octet tandem epitope binning: PD-1-His on HIS1K biosensor, first dip 1C11-based mAb (row), second dip 1C11-based mAb; normalized to HBS-EP first dip
[5] = biological target: human PD-1-His (human) (UniProt Q15116); test: Octet tandem epitope binning: PD-1-His on HIS1K biosensor, first dip chmAb A (row), second dip 1C11-based mAb; normalized to HBS-EP first dip
[6] = biological target: human PD-1-His (human) (UniProt Q15116); test: Octet tandem epitope binning: PD-1-His on HIS1K biosensor, first dip HBS-EP buffer (row; the reference of the normalization), second dip 1C11-based mAb
[7] = biological target: human PD-1-His (human) (UniProt Q15116); test: Octet tandem epitope binning: PD-1-His on HIS1K biosensor, first dip PDL1-Fc (row), second dip 1C11-based mAb; normalized to HBS-EP first dip
[8] = biological target: human PD-1-His (human) (UniProt Q15116); test: Octet
[9] = biological target: human PD-1-His (human) (UniProt Q15116); test: Octet; in the context of PD-1-targeted IL-15/Rα-Fc fusion; reference mAb C H1L1

Sequence of human PD-1-His (human) (Q15116 25-167 limits assumed): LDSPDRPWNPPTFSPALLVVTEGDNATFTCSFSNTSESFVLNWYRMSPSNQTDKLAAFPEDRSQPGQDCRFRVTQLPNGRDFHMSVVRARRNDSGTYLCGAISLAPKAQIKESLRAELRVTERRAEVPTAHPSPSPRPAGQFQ

Binder	normalized BLI-response [1]	normalized BLI-response [2]	normalized BLI-response [3]	normalized BLI-response [4]	normalized BLI-response [5]	normalized BLI-response [6]	normalized BLI-response [7]	Kd [8]	koff [8]	kon [8]	fold improvement in KD over wild-type [9]
1C11-based mAb (antibody, from another filing, V domains shown) VH: QIQLVQSGPELKKPGETVKISCRASGYTFTHYGMNWVKQAPGKGLKWMGWINTYTGEPTYADDFKGRFAFSLETSASTAYLQINNLKNEDTATYFCARDYYGSSPYWGQGTTLTVSS VL: DVLMTQTPLSLPVSLGDQASISCRSSQSIVHSNGNTYLEWYLQKPGQSPKLLIYKVSNRFSGVPDRFSGSGSGTDFTLKISRVEAEDLGVYYCFQGSHVPNTFGGGTKLEIKR	0.253	0.29	0.405	0.0987	0.966	1	0.621	–	–	–	–
mAb C H1.19_L1.1 (in the context of PD-1-targeted IL-15/Rα-Fc fusion) (Fc fusion, part only; not given: IL-15/Rα-Fc chain, constant regions, not shown: another chain or arm of the molecule; a dimerising Fc or GST; small tags and cut ends) VH: EVQLVESGGGLVQPGGSLRLSCAASGFTFSSLGMHWVRQAPGKGLEWVSYISSGSSIIYYADSVKGRFTISRDNAKNSLYLQMNSLRAEDTAVYYCARGGRLVWSPDYWGQGTLVTVSS VL: DIVMTQSPDSLAVSLGERATINCKSSQSLLHSGNQKNYLTWYQQKPGQPPKLLIYWASTRESGVPDRFTGSGSGTDFTLTISSLQAEDVAVYYCQNDYSYPFTFGSGTKLEIK	–	–	–	–	–	–	–	2.29 nM	0.00017 s⁻¹	74400 M⁻¹ s⁻¹	–
mAb C H1.132_L1.140 (in the context of PD-1-targeted IL-15/Rα-Fc fusion) (Fc fusion, part only; not given: IL-15/Rα-Fc chain, constant regions, not shown: another chain or arm of the molecule; a dimerising Fc or GST) VH: EVQLVESGGGLVQPGGSLRLSCAASGFTFSSFGMHWVRQAPGKGLEWVSYISSGSSIIYYADSVKGRFTISRDNAKNSLYLQMNSLRAEDTAVYYCARGGWLVWSPDYWGQGTLVTVSS VL: DIVMTQSPDSLAVSLGERATINCKSSQSLLHSGNQYNYLTWYQQKPGQPPKLLIYWASTRESGVPDRFTGSGSGTDFTLTISSLQAEDVAVYYCQNDYTYPFTFGSGTKLEIK	–	–	–	–	–	–	–	0.543 nM	7.88e-05 s⁻¹	145000 M⁻¹ s⁻¹	100 fold

The remaining lines, values ahead:

normalized BLI-response [1]	normalized BLI-response [2]	normalized BLI-response [3]	normalized BLI-response [4]	normalized BLI-response [5]	normalized BLI-response [6]	normalized BLI-response [7]	Kd [8]	koff [8]	kon [8]	fold improvement in KD over wild-type [9]	Binder
–	–	–	–	–	–	–	1.62 nM	0.000122 s⁻¹	74800 M⁻¹ s⁻¹	36 fold	mAb C H1_L1.140 (in the context of PD-1-targeted IL-15/Rα-Fc fusion) (Fc fusion, part only; not given: IL-15/Rα-Fc chain, constant regions, not shown: another chain or arm of the molecule; a dimerising Fc or GST; small tags and cut ends) VH: EVQLVESGGGLVQPGGSLRLSCAASGFTFSSFGMHWVRQAPGKGLEWVSYISSGSSIIYYADSVKGRFTISRDNAKNSLYLQMNSLRAEDTAVYYCARGGRLVWSPDYWGQGTLVTVSS VL: DIVMTQSPDSLAVSLGERATINCKSSQSLLHSGNQYNYLTWYQQKPGQPPKLLIYWASTRESGVPDRFTGSGSGTDFTLTISSLQAEDVAVYYCQNDYTYPFTFGSGTKLEIK
–	–	–	–	–	–	–	0.624 nM	7.88e-05 s⁻¹	126000 M⁻¹ s⁻¹	100 fold	mAb C H1.175_L1.140 (in the context of PD-1-targeted IL-15/Rα-Fc fusion) (Fc fusion, part only; not given: IL-15/Rα-Fc chain, constant regions, not shown: another chain or arm of the molecule; a dimerising Fc or GST) VH: EVQLVESGGGLVQPGGSLRLSCAASGFTFSSLGMHWVRQAPGKGLEWVSYISGGSSIIYYADSVKGRFTISRDNAKNSLYLQMNSLRAEDTAVYYCARGGWLVWSPDYWGQGTLVTVSS VL: DIVMTQSPDSLAVSLGERATINCKSSQSLLHSGNQYNYLTWYQQKPGQPPKLLIYWASTRESGVPDRFTGSGSGTDFTLTISSLQAEDVAVYYCQNDYTYPFTFGSGTKLEIK
